# ± gives the uncertainty stated by the source.
# Assay: protein stability index of a GFP-peptide fusion (yeast GPS) (PSI 1-4); higher = more stable; sorted into four equal gates, so the index is relative within each strain
# Settings: doa10∆
# In short: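 Tiled yeast protein peptides of 17 residues were each joined downstream of GFP, on plasmids that also express Cherry. The pooled library was maintained in yeast, and mid-log cultures in leucine-free medium were sorted into four equal gates on the GFP/Cherry ratio. Plasmids from every gate were amplified by PCR and sequenced on Illumina, with barcodes linking reads to strains. The protein stability index of a peptide is its gate-number-weighted read frequency summed over the gates.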
row,Sequence,protein stability index
1,TGLLIARRTLQKLGLDE [RPL5],3.2 ± 0.13
2,TGPFKVNGVPLRRVNAR [RPL6B],2.26 ± 0.13
3,TGWNAKTYGISDDIISQ [FAS2],1.99 ± 0.14
4,TGYPDEPPAGVALPPGS [CYT1],2.84 ± 0.13
5,THEQWSNIQRNVLFLRL [SRP72],2.67 ± 0.062
6,THHTDIIPIVDYAQLDH [ARP9],2.58 ± 0.051
7,THVANFMNDAAADVSAV [YML103C/NUP188],2.79 ± 0.097
8,TIEDIAVAITRASKLKI [RPO31],1.63 ± 0.081
9,TINKAVQVKVLGKYEFS [ESC2],1.48 ± 0.077
10,TIPILESDSKATLQSNE [DSN1],2.8 ± 0.12
11,TIRQIILPDSLNLDSLL [SMD1],3.03 ± 0.076
12,TIRTRKVISNPLLARKQ [RPS24A],1.74 ± 0.1
13,TIVTGGGSGNGDDVVND [RPP1],3.14 ± 0.26
14,TIYNNIREGQNQKIPDN [SIR3],2.96 ± 0.05
15,TKANDKNESATINEMMK [FAS2],3.1 ± 0.084
16,TKEELESDGRMFIEEPT [SRP54],2.58 ± 0.091
17,TKFFDDAKSTPLRLRLY [RPN9],3.26 ± 0.24
18,TKGDSTPVQPDLSVTPQ [YAR002W/NUP60],3.22 ± 0.036
19,TKGDTSKATGAPSANQG [RTT102],3.18 ± 0.065
20,TKGENYQLVKTLGEQLI [FAS2],3.06 ± 0.11
21,TKIIMATNRPDTLDPAL [RPT4],2.98 ± 0.065
22,TKLIISGQLNFEIDGDV [PCI8],2.57 ± 0.099
23,TKSGATTSEKQEVTNEA [GAL11],2.99 ± 0.28
24,TKWGLINYQVDSKLLPK [SWI3],2.8 ± 0.11
25,TLELSAQFRVPRYHSKN [SWP82],2.52 ± 0.067
26,TLGVVGKSEKLSLLLVE [SKI6],2.8 ± 0.051

row,Sequence,protein stability index
1,TLHLVLRLRGGGKKRKK [RPS31],2.34 ± 0.26
2,TLSLPDSQDYILSINAI [SMC1],2.85 ± 0.041
3,TLTASPDGTLIASAGKD [ASC1],2.86 ± 0.093
4,TLVHTRVKIANTSAATV [SSN2],2.35 ± 0.056
5,TLVNKSTGLKSASDALK [RPS1A],2.94 ± 0.11
6,TLYIGNTANGRPPVKAI [ECM29],1.84 ± 0.17
7,TMADAVRELGILCIFEG [SEC65],2.52 ± 0.06
8,TMRRQKLTILQEGIEAI [RET1],2.39 ± 0.076
9,TMTISHLLLGFQVSNVI [YJL039C/NUP192],1.41 ± 0.038
10,TNDDSIKNLTVQLSPSN [RGR1],2.8 ± 0.074
11,TNEFVGSPSLTSPQYIP [NUT1],2.85 ± 0.057
12,TNGKPDMAILERYYELA [ARP7],3.23 ± 0.088
13,TNLISKISLLRPSFQNN [SWP82],2.52 ± 0.05
14,TNNEQLQQELATTQDQV [NUT2],3.06 ± 0.048
15,TNSSILLGKILPREEHD [RRP6],1.55 ± 0.064
16,TNSVRLFEVNPSQTLFS [SRP21],2.65 ± 0.09
17,TNVLNFIKLQKIDIIEL [FAS1],2.35 ± 0.042
18,TNVPKAKKRKTLILIQN [SIR3],1.67 ± 0.18
19,TNVRLYSLLLASKGIDR [ECM29],2.13 ± 0.048
20,TNYYLTTARNDLGVVFA [CSL4],2.04 ± 0.066
21,TPLFPIDRNSTILYLNV [IRR1],2.71 ± 0.083
22,TPQQLQMIQQRHQQLLR [SNF5],1.9 ± 0.044
23,TPSTSSNGEFIPHIFYS [CSE2],2.36 ± 0.054
24,TPYNIDRLTQLVRNGPN [RPO21],3.05 ± 0.12
25,TQEEVELPLEDFKAKYC [RPB5],3.33 ± 0.11
26,TQEIRPVNTGVLHVSAK [RRP40],2.72 ± 0.12

row,Sequence,protein stability index
1,TQQPGTNSHYNNTNTDN [SNF2],3.17 ± 0.046
2,TQTYMQMIELNRQICLV [GRR1],2.35 ± 0.13
3,TRAMEYLKFRELPAGQN [RPB2],2.4 ± 0.072
4,TRELAEEGYSGVEVRVT [RPS3],2.4 ± 0.059
5,TRFEVELEFIQSLANIQ [SOH1],2.15 ± 0.082
6,TRIAGVVYHPSNNELVR [RPS8A],2.666 ± 0.019
7,TRIQYVDFACCTNLTNR [GRR1],2.82 ± 0.057
8,TRKAVRPQKLRASLVPG [RPL6B],2.26 ± 0.11
9,TRNEQTTIQTEKVRPTP [MCD1],2.82 ± 0.04
10,TRNITDYSINSRYEPKV [PRE7],2.62 ± 0.053
11,TRSHEYGRKSFRNNKND [REC8],3.2 ± 0.11
12,TRSLKYGKLRNGMFCQV [RRP4],1.42 ± 0.081
13,TRSQFCLNTQRGDSTET [RRI1],3.07 ± 0.094
14,TRVEGSGGGDSEVQRTM [RPT6],2.73 ± 0.098
15,TRYELYIKNILEAPVKS [YLR335W/NUP2],1.67 ± 0.045
16,TRYMFQRDFRKHGAVHL [RPL21A],2.42 ± 0.062
17,TSASNTSMNGVHNTVAA [SNF5],2.66 ± 0.042
18,TSEEQTKFLAKNGVIPE [SWP82],3.71 ± 0.26
19,TSFGQPQSAPNQMGMGT [YOR098C/NUP1],2.81 ± 0.094
20,TSKTVSNQFKRSLATAV [COR1],2.47 ± 0.11
21,TSLKKIKDEIDDPFTKI [SWI1],3.41 ± 0.17
22,TSTKPSFSFGAPESMKS [YOR098C/NUP1],2.97 ± 0.053
23,TSTVNRLNTVTRVHQLM [MCD1],3.22 ± 0.12
24,TSVENEGPVANLKDYEL [REC8],3.38 ± 0.11
25,TSVQEKELMLQSKKLIE [YIL149C/MLP2],2.65 ± 0.089
26,TTDNNNSGNSNSNSNQQ [RPT1],3.3 ± 0.12

row,Sequence,protein stability index
1,TTILSFSSPAALMKTLI [NUT1],1.65 ± 0.047
2,TTPEKPEETPLEELAET [FAS2],3.28 ± 0.076
3,TTQIDLFRIFSMSEEFK [BRR2],2.4 ± 0.14
4,TTSVDVMLKGIVTALLE [SRP54],1.27 ± 0.047
5,TTVFFSRQKSGLFDSFT [YML031W/NDC1],1.49 ± 0.042
6,TTVQVAEEAIVNAMRVL [PRE4],2.91 ± 0.12
7,TVAVLPPNWKYESATAS [RPS13],1.63 ± 0.036
8,TVEPVYQMHIKTSKDIA [FAS1],1.29 ± 0.044
9,TVINEQQREAVRQLYKG [RPL35A],3.44 ± 0.094
10,TVKRGAAGIWTCSCCKK [RPL43A],1.68 ± 0.085
11,TVLETLLSDVNQNQRNV [SMC3],3.23 ± 0.13
12,TVQSERAFQKQPHIFNN [RPS11A],2.69 ± 0.051
13,TVSRAYGGSRCANCVKE [RPL34A],2.4 ± 0.071
14,TVWSANFEYDLSEYDAI [YOR098C/NUP1],2.86 ± 0.27
15,TVYISSIALLKMLKHGR [RPN11],2.25 ± 0.085
16,TVYSSEQYIQELDKRED [SMC3],2.76 ± 0.18
17,TWRTQLAASEIGISIVG [ECM29],1.72 ± 0.065
18,TYDENDDFFKELAKEAK [ESC2],3.01 ± 0.11
19,TYEMRIHKRYIDLEAPV [RPS20],2.17 ± 0.16
20,TYKYPSLKGVDPKFRRN [RPL29],3.03 ± 0.11
21,TYSFIDNDRFNVVGKLI [YML103C/NUP188],2.34 ± 0.058
22,VAALALLFAINSYQPSP [SMC1],1.62 ± 0.059
23,VAFLDNDLGKFIPNKQL [RPN7],3.34 ± 0.17
24,VALPPGSNYNPYFPGGS [CYT1],2.32 ± 0.058
25,VCDLALRFGEGASGEER [PUP2],2.75 ± 0.2
26,VCKKADVDLHKRAGELT [RPS18A],3.23 ± 0.15
